In patent publication US20200024330A1:

Experiments:
Experiment in all cases: cell-based or functional assay
[1] = target: HIV-1 6535.3 Env (pseudovirus) (HIV-1)
[2] = target: HIV-1 Env of isolate MGRM-C-015 (pseudovirus) (HIV-1 isolate MGRM-C-015, subtype C)
[3] = target: HIV-1 Env of isolate MGRM-F1-018 (HIV-1)
[4] = target: HIV-1 Env of isolate MGRM-F1-015 (HIV-1)
[5] = target: HIV-1 Env of isolate MGRM-C-027 (pseudovirus) (HIV-1 isolate MGRM-C-027, subtype C)
[6] = target: HIV-1 Env of isolate MGRM-F1-016 (HIV-1)
[7] = target: HIV-1 Env of isolate MGRM-F1-008 (subtype F) (HIV-1)
[8] = target: HIV-1 Env of isolate MG RM-D-013 (subtype D) (HIV-1)
[9] = target: HIV-1 APV_17 Env (pseudovirus) (HIV-1)
[10] = target: HIV-1 Env of isolate MGRM-C-007 (pseudovirus) (HIV-1 isolate MGRM-C-007, subtype C)
[11] = target: HIV-1 Env of isolate MG RM-D-028 (subtype D) (HIV-1)
[12] = target: HIV-1 JR-CSF Env V120A (HIV-1 (isolate JR-CSF)) (UniProt P20871)
[13] = target: HIV-1 MGRM-A-010 envelope glycoprotein (Env) on pseudovirus (HIV-1)
[14] = target: HIV-1 JR-CSF Env R166A (HIV-1 (isolate JR-CSF)) (UniProt P20871)
[15] = target: HIV-1 JR-CSF Env G471A (HIV-1 (isolate JR-CSF)) (UniProt P20871)
[16] = target: HIV-1 JR-CSF Env D167A (HIV-1 (isolate JR-CSF)) (UniProt P20871)
[17] = target: HIV-1 Env of isolate 94UG103 (HIV-1)
[18] = target: HIV-1 VLGCA1 envelope glycoprotein (Env) on pseudovirus (HIV-1)
[19] = target: HIV-1 MGRM-F1-016 Env (pseudovirus) (HIV-1)
[20] = target: HIV-1 IAVI-C22 envelope protein (Env) on pseudovirus (HIV-1)
[21] = target: HIV-1 MGRM-F1-020 Env (pseudovirus) (HIV-1)
[22] = target: HIV-1 Env of isolate 92UG114 (HIV-1)
[23] = target: HIV-1 Env of pseudovirus NL43, clade B (HIV-1)
[24] = target: HIV-1 Env of pseudovirus THR0.18 (Acute), clade B (HIV-1)
[25] = target: HIV-1 Env of isolate MGRM-D-002 (clade D) (HIV-1)
[26] = target: HIV-1 Env of isolate MGRM-D-020 (HIV-1)
[27] = target: HIV-1 Env of isolate MGRM-G-024 (subtype G) (HIV-1)
[28] = target: HIV-1 94UG103 envelope protein (Env) on pseudovirus (HIV-1)
[29] = target: HIV-1 Env of isolate MGRM-G-014 (subtype G) (HIV-1)
[30] = target: HIV-1 Env of pseudovirus TRJ0.58 (Acute), clade B (HIV-1)
[31] = target: HIV-1 97ZA012 envelope glycoprotein (Env) on pseudovirus (HIV-1)
[32] = target: HIV-1 Env of pseudovirus MGRM-Chronic-B-002, clade B (HIV-1)
[33] = target: HIV-1 Env of isolate MGRM-G-015 (subtype G) (HIV-1)
[34] = target: HIV-1 Env of isolate MGRM-Chronic-B-001 (HIV-1)
[35] = target: HIV-1 Env of isolate MGRM-F1-014 (subtype F), on pseudovirus (HIV-1)
[36] = target: HIV-1 Env of isolate MGRM-C-025 (HIV-1)
[37] = target: HIV-1 Env of isolate MGRM-AE-001 (CRF01_AE), on pseudovirus (HIV-1)
[38] = target: HIV-1 Env of isolate MGRM-A-014 (clade A), on pseudovirus (HIV-1)

Sequence of PGT-142 (4995_E20) (antibody) (VH): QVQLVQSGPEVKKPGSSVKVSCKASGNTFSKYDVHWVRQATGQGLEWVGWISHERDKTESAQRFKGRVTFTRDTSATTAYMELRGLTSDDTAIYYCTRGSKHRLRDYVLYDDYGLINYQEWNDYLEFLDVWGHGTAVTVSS
Sequence of PGT-142 (4995_E20) (antibody) (VL): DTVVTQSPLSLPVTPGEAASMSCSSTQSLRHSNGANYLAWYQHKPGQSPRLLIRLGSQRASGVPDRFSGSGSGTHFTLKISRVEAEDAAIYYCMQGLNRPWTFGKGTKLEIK
Sequence of 5345_I01 (PGT-137) (antibody) (VH): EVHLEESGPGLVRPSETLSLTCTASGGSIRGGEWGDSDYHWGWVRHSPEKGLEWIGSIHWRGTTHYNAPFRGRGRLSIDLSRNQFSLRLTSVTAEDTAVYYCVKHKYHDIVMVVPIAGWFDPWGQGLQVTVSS
Sequence of 5345_I01 (PGT-137) (antibody) (VL): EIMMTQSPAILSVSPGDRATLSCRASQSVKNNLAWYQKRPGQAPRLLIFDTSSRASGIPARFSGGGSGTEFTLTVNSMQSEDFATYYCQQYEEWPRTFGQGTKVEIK

4838_L06 (PGT-121) (antibody) gave an IC50, pseudovirus neutralization [1] of 0.005 µg/mL, an IC50 (µg/mL) neutralization [2] of 25.1 µg/mL and an IC50 [3] of 0.04 µg/mL. The IC50 [4] was 28.4 µg/mL, the IC50 (µg/mL) neutralization [5] was 0.011 µg/mL and the IC50 [6] was 0.931 µg/mL. The IC50 (µg/mL), pseudovirus neutralization [7] was > 50 µg/mL, the IC50 (µg/mL), pseudovirus neutralization [8] was > 50 µg/mL and the IC50, pseudovirus neutralization [9] was 0.066 µg/mL. It also gave an IC50 (µg/mL) neutralization [10] of 0.196 µg/mL and an IC50 (µg/mL), pseudovirus neutralization [11] of 0.009 µg/mL.

For 4858_P08 (PGT-123) (antibody), the IC50, pseudovirus neutralization [1] was 0.004 µg/mL, the IC50 (µg/mL) neutralization [2] was 13.1 µg/mL and the IC50 [3] was 0.054 µg/mL. For the same substance, the IC50 [4] was > 50 µg/mL, the IC50 (µg/mL) neutralization [5] was 0.02 µg/mL and the Fold IC50 increase relative to wild-type [12] was 1.1 fold. For the same substance, the IC50 [6] was 4.95 µg/mL, the IC50 (ug/ml), neutralizing activity [13] was 0.492 µg/mL and the IC50, pseudovirus neutralization [13] was 0.492 µg/mL. The IC80, pseudovirus neutralization [13] was 2.79 µg/mL, the IC90 (pseudovirus neutralization) [13] was 6.44 µg/mL and the IC95, pseudovirus neutralization [13] was > 10 µg/mL. The IC50 (µg/mL), pseudovirus neutralization [7] was > 50 µg/mL, the Fold IC50 increase relative to wild-type [14] was 0.9 fold and the IC50 (µg/mL), pseudovirus neutralization [8] was > 50 µg/mL. The Fold IC50 increase relative to wild-type [15] was 1.3 fold, the IC50, pseudovirus neutralization [9] was 0.114 µg/mL and the IC50 (µg/mL) neutralization [10] was 0.547 µg/mL. The Fold IC50 increase relative to wild-type [16] was 1.2 fold and the IC50 (µg/mL), pseudovirus neutralization [11] was 0.132 µg/mL.

5145_B14 (PGT-127) (antibody) was tested, and the IC50, pseudovirus neutralization [1] was 0.02 µg/mL, the IC50 (µg/mL) neutralization [2] was > 50 µg/mL and the IC50 [3] was 3.59 µg/mL. For the same substance, the IC50 [4] was > 50 µg/mL, the IC50 (µg/mL) neutralization [5] was > 50 µg/mL and the Fold IC50 increase relative to wild-type [12] was 1.5 fold. The IC50 [6] was > 50 µg/mL, the IC50 (µg/mL), pseudovirus neutralization [7] was > 50 µg/mL and the Fold IC50 increase relative to wild-type [14] was 1.6 fold. For the same substance, the IC50 (µg/mL), pseudovirus neutralization [8] was > 50 µg/mL, the Fold IC50 increase relative to wild-type [15] was 1.2 fold and the IC50, pseudovirus neutralization [9] was 10.4 µg/mL. For the same substance, the IC50 (µg/mL) neutralization [10] was > 50 µg/mL, the Fold IC50 increase relative to wild-type [16] was 1.6 fold and the IC50 (µg/mL), pseudovirus neutralization [11] was > 50 µg/mL.

For 1496_C09 (PG9) (TCN-109) (antibody), the IC50 [17] was 0.34 µg/mL, the IC50 (µg/ml), pseudovirus neutralization [18] was 0.07 µg/mL and the IC50 (µg/ml), pseudovirus neutralization [19] was 0.58 µg/mL. For the same substance, the neutralization IC50 [20] was 24.9 µg/mL, the IC50 (µg/ml), pseudovirus neutralization [21] was 4.55 µg/mL and the IC50 (µg/mL), pseudovirus neutralization [22] was 40.6 µg/mL. It also gave an IC50 (µg/mL), pseudovirus neutralization [6] of 0.518 µg/mL, an IC50 (µg/ml), pseudovirus neutralization [23] of 0.32 µg/mL and an IC50 (ug/ml), neutralizing activity [13] of 0.0375 µg/mL. For the same substance, the IC50 neutralization [13] was 0.0375 µg/mL, the IC80, neutralization [13] was 0.121 µg/mL and the IC90, neutralization [13] was 0.242 µg/mL. The IC95, neutralization [13] was 0.456 µg/mL, the IC50 (µg/ml), pseudovirus neutralization [24] was 12.4 µg/mL and the IC50 (µg/ml), pseudovirus neutralization [25] was 0.027 µg/mL. For the same substance, the IC50 (µg/mL), pseudovirus neutralization [26] was 1.67 µg/mL, the neutralization IC50 [27] was 0.163 µg/mL and the neutralization IC50 [28] was 0.173 µg/mL. It also gave a neutralization IC50 [29] of 16.5 µg/mL, an IC50 (µg/ml), pseudovirus neutralization [30] of 0.43 µg/mL and an IC50 (µg/ml), pseudovirus neutralization [31] of 1.27 µg/mL. For the same substance, the IC50 (µg/ml), pseudovirus neutralization [32] was 1.41 µg/mL and the neutralization IC50 [33] was 6.6 µg/mL.

With PGT-142 (4995_E20) (antibody) the neutralization IC50 [27] was 0.054 µg/mL, the neutralization IC50 [29] was 0.076 µg/mL and the neutralization IC50 [33] was > 50 µg/mL.

With PGV04 (antibody) the IC50 [17] was 0.202 µg/mL, the IC50 (µg/mL), pseudovirus neutralization [4] was 0.179 µg/mL and the IC50 (µg/mL), pseudovirus neutralization [22] was 0.461 µg/mL. The IC50 (µg/mL), pseudovirus neutralization [6] was 0.268 µg/mL, the IC50 (µg/mL), pseudovirus neutralization [26] was 0.097 µg/mL and the neutralization IC50 [27] was 0.033 µg/mL. The neutralization IC50 [29] was 0.056 µg/mL and the neutralization IC50 [33] was 0.333 µg/mL.

In the case of PGT-121 (antibody), the IC50 (µg/mL), pseudovirus neutralization [17] is reported as 2.52 µg/mL, the Primary Neutralization Index (B cell culture well 4838 L06) [17] is reported as 1.4 and the Primary Neutralization Index (B cell culture well 4873 E03) [17] is reported as 0.8.

For 4877_D15 (PGT-122) (antibody), the IC50, pseudovirus neutralization [1] was 0.006 µg/mL, the IC50 (µg/mL) neutralization [2] was > 50 µg/mL and the IC50 [3] was 0.563 µg/mL. It also gave an IC50 [4] of 31.4 µg/mL, an IC50 (µg/mL) neutralization [5] of 0.039 µg/mL and an IC50 [6] of 4.81 µg/mL. For the same substance, the IC50 (ug/ml), neutralizing activity [13] was 1.68 µg/mL, the IC50 (µg/mL), pseudovirus neutralization [7] was > 50 µg/mL and the IC50 (µg/mL), pseudovirus neutralization [8] was > 50 µg/mL. It also gave an IC50, pseudovirus neutralization [9] of 0.25 µg/mL, an IC50 (µg/mL) neutralization [10] of 3.35 µg/mL and an IC50 (µg/mL), pseudovirus neutralization [11] of 3.34 µg/mL.

In the case of 5345_I01 (PGT-137) (antibody), the neutralization IC50 [17] is reported as > 50 µg/mL, the IC50 [22] is reported as > 50 µg/mL and the IC50 [34] is reported as > 50 µg/mL. The IC50 [26] was > 50 µg/mL, the IC50, pseudovirus neutralization [35] was > 50 µg/mL and the IC50 [36] was > 50 µg/mL. For the same substance, the IC50, single-round pseudovirus neutralization [37] was > 50 µg/mL and the IC50, single-round pseudovirus neutralization [38] was 18.6 µg/mL.
